Experimental data: patent publication US20180371086A1

Target: HIV-1 Env gp120 of virus WITO, on infected cells (HIV-1)
Assay: cell-based or functional assay

Substance PGT-121 (antibody) has a killing EC50; HIV-infected CEM-NKr-CCR5-LucR CD4 T cells; PBMC donor 4176; virus WITO of over 100 mg/L and a killing EC50; HIV-infected CEM-NKr-CCR5-LucR CD4 T cells; PBMC donor 4288; virus WITO of over 100 mg/L.
